# Assay results from the supplement of paper PMC12042874.
# ± gives the uncertainty stated by the source.
# Assay: amyloid nucleation score (Sup35N fusion, yeast selection) (log enrichment); library NNK3; higher = more nucleation; inactive = no reads after selection
# How it was run: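 For the nucleation score, DiMSum gave the log enrichment of output over input reads, centred on the mode score of non-aggregating sequences. Psi-negative yeast expressing Sup35N fused to peptides of 20 random codons were induced with 100 μM copper sulfate for 24 hours and grown 7 days at 30°C on medium lacking adenine and uracil. Input and output plasmid inserts were Illumina-sequenced, and sequences with under 100 input reads were excluded.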
row,Substance,amyloid nucleation score
1,YLLMTGVWWYYQMCVVVYM,inactive
2,YLSGIPTVVIHVIFGMKDW,inactive
3,YLSGKLFTRAP,inactive
4,YLSPVKRRYD,inactive
5,YLTCVVKRTVH,inactive
6,YLVYNYFMRDHWGLSVYLSR,0.641 ± 0.18
7,YLWARNGDLLLSCCSLNSCM,2.52 ± 0.061
8,YMCGSGCF,inactive
9,YMCKCSYVEMTHSA,inactive
10,YMGPKDSELDSNRAGCDMSC,inactive
11,YMGYWFKFFTFSGDQVTIGR,0.718 ± 0.14
12,YMLLQERLECSSLVDVSYVR,inactive
13,YMRAIHRCCAYLVRGLGSGT,inactive
14,YMRSIGSIFFILYCMQSAHG,0.121 ± 0.33
15,YNGFSLIRFILFAHG,inactive
16,YNLRYLVYYLDLLSPVNQMG,inactive
17,YNNTVCL,inactive
18,YNSFEFGVMSAL,inactive
19,YNVSINYVGENDGWEACFLS,0.666 ± 0.12
20,YPHREQVRRSL,inactive
21,YPRPLFVRNLDVFHWLYTAV,inactive
22,YQLFWRLALFCPVYGCVYLM,-0.027 ± 0.35
23,YQVHWFSNYTTAWMNYVSTV,inactive
24,YQVRV,0.056 ± 0.33
25,YRAFTFIGCLNGLTNQHFFY,2.4 ± 0.059
26,YRDFSEGSFPLIRVLMGMVG,inactive
27,YRDRFAKSSYKSPKMYQYGS,inactive

row,Substance,amyloid nucleation score
1,YRELSTLREEMHIRY,inactive
2,YRGKIGTWECGVISYETAAT,inactive
3,YRGLGRDSHTHCRNHVLLTL,inactive
4,YRINDKSFNVISGIVFSVVR,inactive
5,YRKLVVSPLGILPKYRTPCC,inactive
6,YRLAN,inactive
7,YRLQSLNPPISPVNHTNCSS,inactive
8,YRLRNSS,inactive
9,YRMSR,1.36 ± 0.1
10,YRNLWNIHTVISIASL,inactive
11,YRQRWSRLCAGQSLYNCGKC,inactive
12,YRRAREWGNDDFLNG,0.785 ± 0.12
13,YRYLVFLRLNLSLRILFGFK,inactive
14,YRYNNLKRCGNSAQWLAISS,-0.08 ± 0.34
15,YSAAYEIIIFICQCCNLKVG,inactive
16,YSATGIPSCWRLNFVENLRT,inactive
17,YSDLKSFLLNVIGRNKSIGM,inactive
18,YSEKDLIHRRIFVVNGRS,1.13 ± 0.12
19,YSGLDSCVD,inactive
20,YSIKNGYGFRQSWYKQVLKL,inactive
21,YSKEWVFISIIQKLADGQCN,-0.182 ± 0.66
22,YSKFFTENVYNSISGAMPHF,inactive
23,YSLNCYYFSLGLN,inactive
24,YSLNGAY,inactive
25,YSLRVHSAYIVVKYII,inactive
26,YSLVYAYMESTMYYCLGLRM,inactive
27,YSMRRTDIHPVVFRQ,inactive

row,Substance,amyloid nucleation score
1,YSNRVGNAYMGSLKTSWHVM,inactive
2,YSRMCLVY,inactive
3,YSRSGISFFTGRHKLFSMYG,inactive
4,YSRTDSQGMTNEMVNLGVDV,inactive
5,YSSQLILTYDTRL,inactive
6,YSVAHQIPDDDRQGE,inactive
7,YSVNMLFAAS,inactive
8,YSVPRKSIICIKFDGFWRCV,1.96 ± 0.096
9,YSVVDEKVALSSSWHSCLPL,inactive
10,YTCNSWILDANNLANEPVSK,inactive
11,YTDTYSSLKDLPTGINCYNI,inactive
12,YTIMRNYGFLGARISRGSGS,inactive
13,YTLPGIQAGFWARCVSHTRL,inactive
14,YTLVDRSICT,inactive
15,YTPGLPSDFN,inactive
16,YTSGLVNFVVMDPGL,inactive
17,YTSLCASVNGGLTIS,-0.464 ± 0.8
18,YTWDVGHLKNSSSVYWKLLR,inactive
19,YVCCYARNDRRFSWERRHLS,inactive
20,YVCDRL,inactive
21,YVCGKF,inactive
22,YVCLYEDLTYIA,inactive
23,YVCRRVSQDVRNLTKSVMCV,inactive
24,YVGLDVVPGVLGIGFILLYD,inactive
25,YVNECFSVSLICCYMLFYN,1.52 ± 0.072
26,YVNSNWNNISAQASNSFSGR,inactive
